According to article PMC3418226:
Values belong to the substance of their own block, whether it stands above or below them.

Target: SAP (UniProt O60880)
Assay: GST-SAP pull-down, anti-myc blot
Settings: reference: myc-CD3ζ wild type

binding against the reference (sites Y72,Y83): lost
Substance: CD3ζ (from UniProt P20963) Y72F/Y83F (first ITAM)

binding against the reference (sites Y83): weaker
Substance: CD3ζ (from UniProt P20963) Y83F

binding against the reference (sites Y72): weaker
Substance: CD3ζ (from UniProt P20963) Y72F
